Measurements: patent US11666671B2, “Spatial mapping of kidney functions” (Northwestern University, priority 2018, dated 2023)
Read-outs that look alike come from different tables or passages of the source.

Key:
[1] = Conventional renal scintigraphy (renogram) with radionuclide-bound tracers (FIG. 1)
Source text: FIG. 1 is a low-resolution renogram of a patient using conventional radionuclide-bound tracer ^99mTc DTPA with renal scintigraphy.

FcRn = assay: Binding of Fc to FcRn on renal tubular epithelial cells; format: in vivo; conditions: surface of renal tubular epithelial cells
[2] = Renal histology (immunofluorescence) and renal tubular handling of the carriers (FIGS. 3, 4); conditions: ^99mTc/HYNIC-labelled carriers
[3] = mouse, in vivo
[4] = not given; remark: listed apart in the source
[5] = not given; remark: listed apart in the source
[6] = steady state, from 45 min onward, FIG. 8A

O=C([O-])CN(CCN(CC(=O)[O-])CC(=O)[O-])CCN(CC(=O)[O-])CC(=O)[O-].[99Tc+4] [^99mTc DTPA, ^99mTc Diethylenetriamine-Pentaacetic Acid]
time to wash out of the system [1]: ≤ 20 min

Fc: imaging agent using ^99mTc as detection moiety, HYNIC as chelation moiety, and Fc alone as carrier moiety [reference compound]
FcRn binding (FcRn): binds the FcRn on the surface of renal tubular epithelial cells
renal tubular handling / fate of the carrier [2]: reenters blood circulation via peritubular capillaries

PBT-Fc carrier moiety: N-terminal His6 tag, PBT from human VEGFA (amino acids 131-163), and Fc of human IgG1, expressed in E. coli
distribution of the probe in renal histology (immunofluorescence) [3]: mainly in the tubular basement membrane

^99mTc/HYNIC/PBT-Fc: ^99mTc as the detection moiety, HYNIC as the chelation moiety, and PBT-Fc as the carrier moiety
renal fate / urinary excretion of the agent (after administration to test subjects): fixed (e.g., permanently) at the basement membrane of the downstream renal tubules without being further excreted into urine
time after which radio signals accumulated in the kidney reach the plateau (glomerular filtration phase, tail vein injection): 10 to 20 min
time the agent stayed in the subject's system for steady state imaging ([4]; FIG. 7): 60 min
renal fate / urinary excretion of the agent ([4]; FIG. 7, steady state): concentrated in the kidney without being excreted into urine
kidney retention compared with Fc-alone and Duramycin agents ([4]; FIGS. 6 and 7): accumulate and remain the kidneys of the subjects for much longer than that of the Fc-alone and Duramycin agents
intrarenal localization (section view) ([5]; FIG. 8B): localization of PBT-Fc to the kidney cortex
^99mTc signal in liver and bladder [5, 6]: low levels of signal accumulation in the liver and the bladder
^99mTc signal in the kidney [5, 6]: concentrated in the kidney
renal tubular handling / fate of the carrier [2]: “trapped” in the tubular basement membrane (TBM)
